Results from patent US20210324028A1.

Biological target: human CD122/CD132 on cells of human PBMCs (human) (UniProt P14784)
Experiment: cell-based or functional assay

Sequence of human CD122/CD132 on cells of human PBMCs (human) (P14784 27-551, chain 1 of 2): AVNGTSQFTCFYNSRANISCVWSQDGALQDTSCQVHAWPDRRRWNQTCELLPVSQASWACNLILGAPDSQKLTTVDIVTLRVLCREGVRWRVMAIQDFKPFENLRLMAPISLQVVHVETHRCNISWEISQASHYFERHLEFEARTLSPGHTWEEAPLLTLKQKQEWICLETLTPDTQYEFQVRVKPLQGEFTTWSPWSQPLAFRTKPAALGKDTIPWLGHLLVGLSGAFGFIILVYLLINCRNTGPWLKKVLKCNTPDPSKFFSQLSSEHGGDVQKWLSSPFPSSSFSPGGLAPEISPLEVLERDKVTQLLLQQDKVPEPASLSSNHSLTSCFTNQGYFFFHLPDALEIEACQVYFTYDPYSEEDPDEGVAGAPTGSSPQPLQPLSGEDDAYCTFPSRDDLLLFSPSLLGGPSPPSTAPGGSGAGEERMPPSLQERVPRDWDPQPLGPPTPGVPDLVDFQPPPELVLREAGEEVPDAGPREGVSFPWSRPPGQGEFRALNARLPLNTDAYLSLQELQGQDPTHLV
Sequence of human CD122/CD132 on cells of human PBMCs (human) (P31785 23-369, chain 2 of 2, further chain): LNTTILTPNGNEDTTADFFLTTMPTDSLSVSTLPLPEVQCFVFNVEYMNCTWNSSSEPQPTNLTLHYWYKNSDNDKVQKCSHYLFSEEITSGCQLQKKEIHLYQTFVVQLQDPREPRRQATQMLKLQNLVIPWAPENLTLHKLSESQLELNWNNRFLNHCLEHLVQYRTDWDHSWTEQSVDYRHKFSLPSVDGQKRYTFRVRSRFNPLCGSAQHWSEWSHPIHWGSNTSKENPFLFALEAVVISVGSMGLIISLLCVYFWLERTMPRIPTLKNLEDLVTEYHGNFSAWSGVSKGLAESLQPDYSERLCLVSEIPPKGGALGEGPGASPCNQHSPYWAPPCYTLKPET

pSTAT5 EC50 on human CD8+cm T cells (hPBMC) | pSTAT5 EC50 on human NK cells (hPBMC) | Binder
3.67 nM | 0.946 nM | Isotype control--IL15 M1 (protein, part only; not given: Isotype control antibody chains and linker, part only) heavy, part: AWVNVISDLKKIEDLIQSMHIDATLYTESNVHPSCKVTAMKCFLLGLQRISLESGDASIHDTVENLIILANNSLSSNGNVTESGCKECEELEEKNIKEFLQSFVHIVQMFINTS
37.6 nM | 11.2 nM | Isotype control--IL15 M2 (protein, part only; not given: Isotype control antibody chains and linker, part only) heavy, part: GWVNVISDLKKIEDLIQSMHIDATLYTESNVHPSCKVTAMKCFLLGLQRISLESGDASIHDTVQNLIILANNSLSSNGNVTESGCKECEELEEKNIKEFLQSFVHIVQMFINTS
